Assay results as given in US20150258192A1, “COMPOSITIONS AND METHODS FOR PREVENTING OR TREATING CHRONIC LUNG ALLOGRAFT DYSFUNCTION (CLAD) AND IDIOPATHIC PULMONARY FIBROSIS (IPF)” (priority 2014, published 2015).
No end group written: not given here.

Target: ALK(h) (Homo sapiens, UniProt Q9UM73)
Assay: Kinase Profiling Assay
Type: biochemical
Conditions: peptide 100 μM
Summary of the method: (§1)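 In this 266-kinase specificity panel, every measurement was duplicated. Transfer of labeled phosphate from ATP to a cationic substrate was quantified after the substrate adhered to an anionic filter membrane and was scintillation-counted, then related to a full-activity control.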

Chain of ALK(h) (Q9UM73 19-1620): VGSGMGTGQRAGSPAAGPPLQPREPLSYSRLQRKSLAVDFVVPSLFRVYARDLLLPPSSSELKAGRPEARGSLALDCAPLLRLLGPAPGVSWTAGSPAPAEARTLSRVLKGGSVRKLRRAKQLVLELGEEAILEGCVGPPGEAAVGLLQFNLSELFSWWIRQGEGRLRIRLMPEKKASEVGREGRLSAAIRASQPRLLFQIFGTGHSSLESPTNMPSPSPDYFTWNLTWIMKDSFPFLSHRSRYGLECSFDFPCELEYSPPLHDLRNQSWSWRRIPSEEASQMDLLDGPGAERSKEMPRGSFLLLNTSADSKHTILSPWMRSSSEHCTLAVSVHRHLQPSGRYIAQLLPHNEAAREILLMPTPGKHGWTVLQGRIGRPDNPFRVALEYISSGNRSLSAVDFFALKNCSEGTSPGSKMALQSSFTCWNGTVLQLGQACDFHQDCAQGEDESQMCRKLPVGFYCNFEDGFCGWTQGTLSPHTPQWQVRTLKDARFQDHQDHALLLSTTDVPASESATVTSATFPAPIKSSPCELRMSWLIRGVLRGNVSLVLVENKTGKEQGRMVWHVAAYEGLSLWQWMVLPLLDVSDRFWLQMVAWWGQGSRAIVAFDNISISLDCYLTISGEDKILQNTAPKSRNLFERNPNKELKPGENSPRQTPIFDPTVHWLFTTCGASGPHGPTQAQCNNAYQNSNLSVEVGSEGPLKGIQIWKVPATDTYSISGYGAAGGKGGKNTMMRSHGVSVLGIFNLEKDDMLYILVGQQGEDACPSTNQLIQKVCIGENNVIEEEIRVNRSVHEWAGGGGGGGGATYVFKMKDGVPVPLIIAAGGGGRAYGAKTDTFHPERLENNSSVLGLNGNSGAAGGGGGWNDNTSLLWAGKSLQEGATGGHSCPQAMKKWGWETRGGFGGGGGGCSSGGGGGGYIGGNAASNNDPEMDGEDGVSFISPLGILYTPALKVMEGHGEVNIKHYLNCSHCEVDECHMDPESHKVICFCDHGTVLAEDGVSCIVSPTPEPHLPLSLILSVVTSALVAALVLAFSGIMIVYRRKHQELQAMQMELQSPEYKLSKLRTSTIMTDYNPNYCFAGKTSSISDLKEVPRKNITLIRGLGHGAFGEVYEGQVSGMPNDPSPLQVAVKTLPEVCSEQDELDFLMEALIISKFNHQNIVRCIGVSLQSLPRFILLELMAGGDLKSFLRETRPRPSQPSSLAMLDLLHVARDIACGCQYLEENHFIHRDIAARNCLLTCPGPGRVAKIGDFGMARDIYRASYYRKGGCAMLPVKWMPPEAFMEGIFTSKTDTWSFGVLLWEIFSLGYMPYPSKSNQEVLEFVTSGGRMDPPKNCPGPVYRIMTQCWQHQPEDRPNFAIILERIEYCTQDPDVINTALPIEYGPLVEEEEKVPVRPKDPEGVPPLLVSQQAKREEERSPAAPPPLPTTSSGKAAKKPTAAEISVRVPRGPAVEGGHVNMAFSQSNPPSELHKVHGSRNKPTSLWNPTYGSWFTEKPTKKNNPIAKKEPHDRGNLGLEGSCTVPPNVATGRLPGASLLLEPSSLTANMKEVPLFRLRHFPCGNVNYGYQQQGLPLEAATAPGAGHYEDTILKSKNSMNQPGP

Point of comparison: “HRRIKAWLKKIKALARQLGVAA (Mammal) [MMI-0500]”, “% activity” value 12%. Against it:
- FAKLAARLYRKALARQLGVAA [MMI-0300] — higher, 19%
- KAFAKLAARLYRKALARQLGVAA [MMI-0400] — higher, 16%
- YARAAARQARAKALARQLGVAA [MMI-0100] — higher, 118%
- YARAAARQARAKALNRQLGVA (Mammal) [MMI-0200] — higher, 95%

Target: T1, ARK5(h) (Homo sapiens, UniProt O60285)
T1 sequence (O60285 1-661): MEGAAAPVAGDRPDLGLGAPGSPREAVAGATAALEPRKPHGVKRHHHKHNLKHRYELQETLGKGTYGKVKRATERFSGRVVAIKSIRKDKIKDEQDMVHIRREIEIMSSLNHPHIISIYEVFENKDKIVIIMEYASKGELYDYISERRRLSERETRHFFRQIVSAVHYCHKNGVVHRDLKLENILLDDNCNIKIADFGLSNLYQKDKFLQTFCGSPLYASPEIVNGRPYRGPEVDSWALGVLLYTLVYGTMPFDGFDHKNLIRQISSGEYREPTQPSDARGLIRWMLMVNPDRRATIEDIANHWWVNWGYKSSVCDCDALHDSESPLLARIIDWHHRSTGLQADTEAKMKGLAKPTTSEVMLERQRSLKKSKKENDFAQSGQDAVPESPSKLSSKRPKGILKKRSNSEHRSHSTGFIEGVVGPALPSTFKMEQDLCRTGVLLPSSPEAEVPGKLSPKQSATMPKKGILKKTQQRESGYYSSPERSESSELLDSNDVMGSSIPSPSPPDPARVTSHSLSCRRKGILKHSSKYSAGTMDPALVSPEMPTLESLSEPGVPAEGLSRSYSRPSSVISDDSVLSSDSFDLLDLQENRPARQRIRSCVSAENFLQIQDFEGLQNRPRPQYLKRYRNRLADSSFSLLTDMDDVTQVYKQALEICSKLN
Assay: Kinase Profiling Assay
Type: biochemical
Conditions: peptide 100 μM
Summary of the method: as §1

Point of comparison: “YARAAARQARAKALNRQLGVA (Mammal) [MMI-0200]”, “% activity” value 93%. Against it:
- FAKLAARLYRKALARQLGVAA [MMI-0300] — lower, 78%
- HRRIKAWLKKIKALARQLGVAA (Mammal) [MMI-0500] — lower, 20%
- KAFAKLAARLYRKALARQLGVAA [MMI-0400] — lower, 69%
- YARAAARQARAKALARQLGVAA [MMI-0100] — higher, 108%

Target: CaMKI(h) (Homo sapiens, UniProt Q14012)
Assay: Kinase Profiling Assay
Type: biochemical
Conditions: peptide 100 μM
Summary of the method: as §1

Point of comparison: FAKLAARLYRKALARQLGVAA [MMI-0300], “% activity” value 1%. Against it:
- HRRIKAWLKKIKALARQLGVAA (Mammal) [MMI-0500] — lower, -1%
- KAFAKLAARLYRKALARQLGVAA [MMI-0400] — lower, 0%
- YARAAARQARAKALNRQLGVA (Mammal) [MMI-0200] — higher, 21%

Target: T2, CaMKIV(h) (Homo sapiens, UniProt Q16566)
T2 sequence (Q16566 1-473): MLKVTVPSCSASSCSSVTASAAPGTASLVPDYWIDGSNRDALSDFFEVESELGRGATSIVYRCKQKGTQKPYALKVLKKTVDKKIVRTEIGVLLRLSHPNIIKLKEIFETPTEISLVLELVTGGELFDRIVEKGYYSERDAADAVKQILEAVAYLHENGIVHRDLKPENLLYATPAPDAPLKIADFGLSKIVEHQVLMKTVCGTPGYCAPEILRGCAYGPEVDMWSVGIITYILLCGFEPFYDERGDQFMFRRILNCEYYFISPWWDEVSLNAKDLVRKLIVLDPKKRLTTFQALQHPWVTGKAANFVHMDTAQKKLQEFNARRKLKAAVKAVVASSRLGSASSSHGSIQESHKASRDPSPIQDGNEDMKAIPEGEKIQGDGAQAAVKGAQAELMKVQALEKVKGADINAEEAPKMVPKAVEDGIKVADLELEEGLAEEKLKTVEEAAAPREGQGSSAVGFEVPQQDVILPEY
Assay: Kinase Profiling Assay
Type: biochemical
Conditions: peptide 100 μM
Summary of the method: as §1

Point of comparison: FAKLAARLYRKALARQLGVAA [MMI-0300], “% activity” value 17%. Against it:
- HRRIKAWLKKIKALARQLGVAA (Mammal) [MMI-0500] — lower, -1%
- KAFAKLAARLYRKALARQLGVAA [MMI-0400] — higher, 18%
- YARAAARQARAKALNRQLGVA (Mammal) [MMI-0200] — higher, 71%

Target: FGFR4(h) (Homo sapiens, UniProt P22455)
Assay: Kinase Profiling Assay
Type: biochemical
Conditions: peptide 100 μM
Summary of the method: as §1

Point of comparison: FAKLAARLYRKALARQLGVAA [MMI-0300], “% activity” value 28%. Against it:
- HRRIKAWLKKIKALARQLGVAA (Mammal) [MMI-0500] — lower, 3%
- KAFAKLAARLYRKALARQLGVAA [MMI-0400] — lower, 19%
- YARAAARQARAKALNRQLGVA (Mammal) [MMI-0200] — higher, 75%

Target: T3, HIPK1(h) (Homo sapiens, UniProt Q86Z02)
T3 construct: purchased Millipore
Assay: Kinase Profiling Assay
Type: biochemical
Conditions: peptide 100 μM
Summary of the method: as §1

T3 sequence (Q86Z02 whole entry): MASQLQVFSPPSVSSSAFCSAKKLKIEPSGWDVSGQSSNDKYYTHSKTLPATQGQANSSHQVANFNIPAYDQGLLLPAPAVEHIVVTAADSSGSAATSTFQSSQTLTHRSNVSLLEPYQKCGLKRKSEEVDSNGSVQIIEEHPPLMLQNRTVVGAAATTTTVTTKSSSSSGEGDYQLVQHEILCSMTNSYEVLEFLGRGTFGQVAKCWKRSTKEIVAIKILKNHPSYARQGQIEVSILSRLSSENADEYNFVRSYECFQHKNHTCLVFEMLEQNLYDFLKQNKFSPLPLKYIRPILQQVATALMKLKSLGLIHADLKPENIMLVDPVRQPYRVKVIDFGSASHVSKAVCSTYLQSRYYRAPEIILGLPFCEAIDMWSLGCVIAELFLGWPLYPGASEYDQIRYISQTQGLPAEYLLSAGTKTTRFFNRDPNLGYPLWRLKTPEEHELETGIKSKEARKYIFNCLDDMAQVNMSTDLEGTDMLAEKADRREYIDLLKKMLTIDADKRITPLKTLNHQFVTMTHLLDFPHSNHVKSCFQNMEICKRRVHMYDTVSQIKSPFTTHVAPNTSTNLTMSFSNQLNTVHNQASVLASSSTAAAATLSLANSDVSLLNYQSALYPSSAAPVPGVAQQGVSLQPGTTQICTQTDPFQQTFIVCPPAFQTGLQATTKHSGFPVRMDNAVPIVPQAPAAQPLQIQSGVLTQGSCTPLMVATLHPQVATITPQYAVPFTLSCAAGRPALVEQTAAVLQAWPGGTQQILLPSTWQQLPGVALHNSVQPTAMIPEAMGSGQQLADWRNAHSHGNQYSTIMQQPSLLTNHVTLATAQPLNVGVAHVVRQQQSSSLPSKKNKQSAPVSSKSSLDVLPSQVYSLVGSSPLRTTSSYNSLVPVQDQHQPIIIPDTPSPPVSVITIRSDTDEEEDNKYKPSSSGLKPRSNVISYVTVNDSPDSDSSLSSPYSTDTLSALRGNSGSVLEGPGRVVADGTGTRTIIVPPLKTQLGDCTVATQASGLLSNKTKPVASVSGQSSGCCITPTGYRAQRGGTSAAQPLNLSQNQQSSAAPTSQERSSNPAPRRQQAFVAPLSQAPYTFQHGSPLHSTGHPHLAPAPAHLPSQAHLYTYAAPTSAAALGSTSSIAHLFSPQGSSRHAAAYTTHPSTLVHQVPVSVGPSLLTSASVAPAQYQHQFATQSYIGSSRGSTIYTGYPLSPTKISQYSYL

Point of comparison: FAKLAARLYRKALARQLGVAA [MMI-0300], “% activity” value 74%. Against it:
- HRRIKAWLKKIKALARQLGVAA (Mammal) [MMI-0500] — lower, 47%
- KAFAKLAARLYRKALARQLGVAA [MMI-0400] — higher, 91%
- YARAAARQARAKALARQLGVAA [MMI-0100] — higher, 94%

Target: T4, JAK3(h) (Homo sapiens, UniProt P52333)
T4 construct: purchased Millipore
T4 sequence (P52333 1-1124): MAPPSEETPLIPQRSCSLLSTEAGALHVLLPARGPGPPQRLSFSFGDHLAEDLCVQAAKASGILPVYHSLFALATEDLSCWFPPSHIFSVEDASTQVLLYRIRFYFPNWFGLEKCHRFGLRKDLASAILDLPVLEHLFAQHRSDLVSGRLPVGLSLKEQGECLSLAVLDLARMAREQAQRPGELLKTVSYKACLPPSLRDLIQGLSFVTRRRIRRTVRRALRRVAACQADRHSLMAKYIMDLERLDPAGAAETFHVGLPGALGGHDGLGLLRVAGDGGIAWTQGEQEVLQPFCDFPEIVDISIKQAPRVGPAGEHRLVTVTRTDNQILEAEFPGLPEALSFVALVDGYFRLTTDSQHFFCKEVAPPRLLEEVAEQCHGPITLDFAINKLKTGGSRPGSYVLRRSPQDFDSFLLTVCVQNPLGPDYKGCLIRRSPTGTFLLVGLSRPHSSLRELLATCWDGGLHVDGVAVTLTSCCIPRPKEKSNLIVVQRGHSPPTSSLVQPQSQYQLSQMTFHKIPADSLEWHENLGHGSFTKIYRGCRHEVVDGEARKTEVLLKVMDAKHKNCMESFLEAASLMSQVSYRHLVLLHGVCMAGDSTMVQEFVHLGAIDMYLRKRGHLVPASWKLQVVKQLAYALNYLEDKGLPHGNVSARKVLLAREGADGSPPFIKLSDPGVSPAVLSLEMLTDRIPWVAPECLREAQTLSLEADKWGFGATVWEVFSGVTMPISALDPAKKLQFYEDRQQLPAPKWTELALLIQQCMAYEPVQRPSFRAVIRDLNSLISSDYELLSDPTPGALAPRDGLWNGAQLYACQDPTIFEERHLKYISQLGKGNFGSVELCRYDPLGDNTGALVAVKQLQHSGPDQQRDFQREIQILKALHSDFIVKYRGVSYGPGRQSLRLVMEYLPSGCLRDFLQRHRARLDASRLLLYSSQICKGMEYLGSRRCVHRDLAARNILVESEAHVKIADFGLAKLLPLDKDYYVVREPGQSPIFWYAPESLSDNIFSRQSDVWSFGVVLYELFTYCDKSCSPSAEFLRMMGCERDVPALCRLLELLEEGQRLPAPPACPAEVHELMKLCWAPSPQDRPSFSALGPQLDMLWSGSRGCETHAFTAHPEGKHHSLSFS
Assay: Kinase Profiling Assay
Type: biochemical
Conditions: peptide 100 μM
Summary of the method: as §1

Point of comparison: “HRRIKAWLKKIKALARQLGVAA (Mammal) [MMI-0500]”, “% activity” value 95%. Against it:
- KAFAKLAARLYRKALARQLGVAA [MMI-0400] — higher, 122%
- YARAAARQARAKALARQLGVAA [MMI-0100] — higher, 150%

Target: PDGFRα(h) (Homo sapiens, UniProt P16234)
Assay: Kinase Profiling Assay
Type: biochemical
Conditions: peptide 100 μM
Summary of the method: as §1

Chain of PDGFRα(h) (P16234 24-1089): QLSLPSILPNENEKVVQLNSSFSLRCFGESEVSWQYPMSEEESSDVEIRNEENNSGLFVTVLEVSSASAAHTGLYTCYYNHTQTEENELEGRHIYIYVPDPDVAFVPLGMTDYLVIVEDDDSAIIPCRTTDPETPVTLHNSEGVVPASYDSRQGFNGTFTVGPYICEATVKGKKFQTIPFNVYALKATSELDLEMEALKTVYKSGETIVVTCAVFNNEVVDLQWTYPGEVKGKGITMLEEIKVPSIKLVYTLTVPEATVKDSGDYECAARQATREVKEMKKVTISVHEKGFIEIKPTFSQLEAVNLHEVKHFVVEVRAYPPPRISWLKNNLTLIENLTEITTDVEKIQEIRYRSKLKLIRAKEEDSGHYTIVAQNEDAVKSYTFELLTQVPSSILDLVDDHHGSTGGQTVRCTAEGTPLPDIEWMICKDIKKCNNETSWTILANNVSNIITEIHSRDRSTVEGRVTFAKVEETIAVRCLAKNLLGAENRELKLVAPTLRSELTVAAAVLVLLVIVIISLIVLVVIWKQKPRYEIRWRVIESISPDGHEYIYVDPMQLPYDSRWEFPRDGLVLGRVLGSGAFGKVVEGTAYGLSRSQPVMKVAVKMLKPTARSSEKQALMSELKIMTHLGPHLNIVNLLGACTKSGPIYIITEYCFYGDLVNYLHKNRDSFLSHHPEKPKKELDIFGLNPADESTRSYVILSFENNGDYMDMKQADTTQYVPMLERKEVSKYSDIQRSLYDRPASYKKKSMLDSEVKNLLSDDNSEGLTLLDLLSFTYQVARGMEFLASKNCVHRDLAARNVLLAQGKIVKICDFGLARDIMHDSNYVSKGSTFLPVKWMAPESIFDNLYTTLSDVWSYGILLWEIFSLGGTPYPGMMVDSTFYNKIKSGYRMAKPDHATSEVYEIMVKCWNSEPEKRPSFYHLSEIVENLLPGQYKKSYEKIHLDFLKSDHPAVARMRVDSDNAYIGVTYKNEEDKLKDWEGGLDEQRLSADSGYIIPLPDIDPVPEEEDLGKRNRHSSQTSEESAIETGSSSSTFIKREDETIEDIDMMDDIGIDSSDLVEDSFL

Point of comparison: FAKLAARLYRKALARQLGVAA [MMI-0300], “% activity” value 65%. Against it:
- HRRIKAWLKKIKALARQLGVAA (Mammal) [MMI-0500] — lower, 40%
- KAFAKLAARLYRKALARQLGVAA [MMI-0400] — lower, 40%
- YARAAARQARAKALNRQLGVA (Mammal) [MMI-0200] — higher, 108%

Target: T5, SAPK2b(h) (Homo sapiens, UniProt Q15759)
T5 construct: purchased Millipore
Assay: Kinase Profiling Assay
Type: biochemical
Conditions: peptide 100 μM
Summary of the method: as §1

T5 sequence (Q15759 whole entry): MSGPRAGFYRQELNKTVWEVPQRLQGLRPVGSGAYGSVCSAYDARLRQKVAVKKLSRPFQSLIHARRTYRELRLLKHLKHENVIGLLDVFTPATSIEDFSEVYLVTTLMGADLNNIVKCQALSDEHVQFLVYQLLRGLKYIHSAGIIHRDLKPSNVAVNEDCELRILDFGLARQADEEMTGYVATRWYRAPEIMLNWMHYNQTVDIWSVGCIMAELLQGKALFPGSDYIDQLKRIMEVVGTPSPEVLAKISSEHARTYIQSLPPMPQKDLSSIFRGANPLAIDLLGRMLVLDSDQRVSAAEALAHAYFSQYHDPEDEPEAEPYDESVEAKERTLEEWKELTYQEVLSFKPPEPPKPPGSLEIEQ

Point of comparison: “YARAAARQARAKALNRQLGVA (Mammal) [MMI-0200]”, “% activity” value 95%. Against it:
- FAKLAARLYRKALARQLGVAA [MMI-0300] — lower, 81%
- HRRIKAWLKKIKALARQLGVAA (Mammal) [MMI-0500] — lower, 42%
- KAFAKLAARLYRKALARQLGVAA [MMI-0400] — lower, 82%

Target: Yes(h) (Homo sapiens, UniProt P07947)
Assay: Kinase Profiling Assay
Type: biochemical
Conditions: peptide 100 μM
Summary of the method: as §1

Chain of Yes(h) (P07947 whole entry): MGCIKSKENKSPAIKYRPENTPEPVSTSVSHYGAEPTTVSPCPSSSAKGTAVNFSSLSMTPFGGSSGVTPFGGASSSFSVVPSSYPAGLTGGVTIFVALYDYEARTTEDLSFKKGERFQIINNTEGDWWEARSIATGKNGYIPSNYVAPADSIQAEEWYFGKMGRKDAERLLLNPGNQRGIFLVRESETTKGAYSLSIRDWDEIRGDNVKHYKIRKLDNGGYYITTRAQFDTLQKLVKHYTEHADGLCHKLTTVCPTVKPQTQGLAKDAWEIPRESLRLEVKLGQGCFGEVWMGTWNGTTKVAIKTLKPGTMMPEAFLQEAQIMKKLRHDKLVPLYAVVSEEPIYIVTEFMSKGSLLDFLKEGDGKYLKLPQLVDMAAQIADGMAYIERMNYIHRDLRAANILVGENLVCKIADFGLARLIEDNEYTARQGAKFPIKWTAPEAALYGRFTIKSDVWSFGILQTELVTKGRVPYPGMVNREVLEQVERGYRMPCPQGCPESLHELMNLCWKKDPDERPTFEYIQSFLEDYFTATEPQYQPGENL

Point of comparison: KAFAKLAARLYRKALARQLGVAA [MMI-0400], “% activity” value 14%. Against it:
- FAKLAARLYRKALARQLGVAA [MMI-0300] — higher, 67%
- YARAAARQARAKALNRQLGVA (Mammal) [MMI-0200] — higher, 93%
